Laboratory results from the nanobody polyreactivity screen of Harvey et al. (2022).

Test: yeast display, Sf9 membrane polyspecificity reagent, FACS + sequencing; frameworks hold sequencing errors
Summary of the method: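 Galactose-induced (36–48 hours) yeast carrying a synthetic nanobody display library were exposed to 10% biotinylated, detergent-solubilized Sf9 membrane reagent at 4 °C for 1 hour. FACS followed streptavidin microbead enrichment, using low and high (top ~1%) gates for expression (anti-HA) and reagent binding (streptavidin). Colony PCR, MiSeq 2 × 250 sequencing and CDR-length filtering followed. Labels for polyreactivity reflect the gate of origin.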

Sequence	polyreactivity (PSR sort gate)
QVQLVESGGGLVQAGGSLRLSCAASGSTFYHNAMGWYRQAPGKERELVAAMTWSGSRTYYADSVKGRFTISRDNAKNTVYLQMNSLKPEDTAVYYCAARDYWGQGTQVTVSS	high polyreactivity
QVQLVESGGGLVQAGGSLRLSCAASGFTFDGYAMGWYRQAPGKERELVAAIRRSGASTYYADSVKGRFTISRDNAKNTVYLHMNSLKPEDTAVYYCNATRNYEPRYSSFTLRGYYWGQGTQVTVSS	low polyreactivity
QVQLVESVGGLVQAGGSLRLSSASSGRIFWDYAIGCYRQAPGKERELVASISTDGSTYYADSVKGRFTISRDNAKNTVYLQMNSLKPEDTEVYFCAVRGLYRYIRWGYPSYYYWGLGTQVTVSS	low polyreactivity
QVQLVESGGGLVQAGGSLRLSCAASGSIFGQNAMGWYRQAPGKERELVAAITSGAGITYYADSVKGRFTISRDNAKNTVYLQMNSLKPEDPAVYYCIAVPSWSPSPLFDYWGQGTQVTVSS	low polyreactivity
QVQLVESGGGLVQAGGSLRLSCAASGRIFKSYAMGWYRQAPGKERELVASITWSGGRTYYADSVKGRFTISRDNAKNTVYLQMNSLIPEDTAVYYCAARTYSYGSILKYYYWGQGTQVTVSS	high polyreactivity
QVQLVESGGGLVQAGGSLRLSCAASGNIFYNGMGWYRQAPGKERELVAAIRGSAGRTYADSVKGRFTISRDNAKNTVYLQMNILKPEDTAVYYCAAAKRYYSEMYWGQGTQVTVSS	high polyreactivity
QVQLVESGGRLVQAGGSLRLSCAASGSTFGRYVMGWYRQTPGKERELVAAISYSGGRTYYADSVKLRFTISRDNAKNTVYLQMNSLNPEDTAVFYCATRVTLTRWLYDYWGQGSQVTVSS	high polyreactivity
QVQLVESGGGLVQAGGSLRLSCAASGSTFTYYAMGWYRQAPGKERELVAAINWDGGRTYYADSVKGRFTISRDNAKNTVYLQMNSLKPEDTAVYYCNAVGRYRSGFDYWGQGTQVTVSS	high polyreactivity
QVQLVESGGGLVQAGGSLRLSCAASGFIFRHYAMGWYRQSPGKAREMVAVINWSGSSTYYADSVKGRFTISRDNEKNTVFLQMNSLKPEDTAVYYCAVRSLRVDKYGYWGLGTQVTVSS	high polyreactivity
QVQLVESGGGLVQAGGSLRLSCAASGLIFKVYAMGWYRQAPWKERELVAAITYSGGSTDYADSVKGRFTISRDNAKNTVYLQMNSLTPEDTAVYYCNVEKVGHVNSYGYDYWGQGTQVNVSS	low polyreactivity
QVQLVESGGGLVQAGGSLRLSCAASGRIFRIYAMGWYRQAPGKERELVAAISWSGGRTYYADSVKGRFTISRDNAKNTVYLQMNSLIREDTAVYYCNADSYSRRGFEYDYWGQGTQVTVSS	high polyreactivity
QVQLVESGGGLVQAGGSLRLSCAASGFIFRYYAMGWYRQAPGKERELVAAISGSGGSTYYADSVKGRFTISRDNAKNTVYLQMNSLKPEDTAVYYCNKGRGRVYGIYDYWGQGTQVTVSS	high polyreactivity
QVQLVESGGGLVQAGGSLRLSCAASGSIFGHNTMGWYRPAPGKERELVAAITWNGGRTYYADSVKGRFTISRDNAMNTVYLQMNSLKPEDTAVYYCNAVVKTYAYKAHRYPSTRLNYWGQGTQVTVSS	high polyreactivity
QVQLVESGGGLVQAGGSLRLSCAASGRIFKRYAMGWYRQAPGKERELVAAIRTSDGITYYADSVKGRFTISRDNAKNTVYLQMNSLKPEDTAVYYCNADLSKAERWGQGTQVTVSS	low polyreactivity
QVQLVESGGGLVQAGGSLRLSCAASGSPFSSYVMGWYRQAPGTERELVAAISSIGGSTYSADSVKGRFTISRDNAKNTVFLQLNSLKPEDTAVYYCNALYDVWITLHTYTSSDYWGEGTQVTVSS	low polyreactivity
QVQLVESGGGLVQAGGRLSLSCAASGSIFNQYAMGWHRQAPGKERELVAAISSDGGRTYYADSVKGRFTISRDNAKITVYLQMNSLKPEDTAVYYCNADFPAYGLECDVYWGQGTQVTVSS	low polyreactivity
QVQLVESGGGLVQAGGSLRLSCATSGGTLVANAMGWSSQPPGKESEFVAVITLTAGSTSYADSVKGRLTISRDNAKNTVYLQMNSLKPEDTAVYYCNVDVYNVYNSYPYYYWGQGTQVTVSS	low polyreactivity
QVQLVESGGGLVQAGGSLRLSCAASGFIFARYGMGWYRQAPGKERELVAAIRTSGGTYYADSVKGRFTISRDNAKNTVYLQMNSLKPEDTAVYYCNVYRRVIWPKNYDYWGQGTQVTVSS	high polyreactivity
QVQLVESAGGLVQAGGSLRLSCAASGSTFVWYAMGGYRQAPGKERELVDAINFGGTTYYADSVKGRFRISRYNAKNTVYLQLNSLKPEDTAVYYCATEYDYGSWFPDGWGIFDYWGQGTQVTVSS	low polyreactivity
QVQLVESGGGLVQAGGSLRLSCAASGFIFASYTMGWYRQAPGKERELVASISRDGGRTSYADSVKGRFTISRDNAKNTVYLQMNSLKPEDTAVYYCAARYWLRSEYWGQGTQVTVSS	high polyreactivity
QVQLVESGGGLVQAGGSLRLSCAASGNIFLYYAMGWYRQAPGKERELVADIDSSGASTYYADSVKGRFTMSRDNAKNTVYLQMNSLKPEDTAVYYCAAEFHWWYAGYDYGYWGQGTQVTVSS	low polyreactivity
QVQLVESVGGLVQAGGSLRLSCAASGLMFWYYTMGWYRQAPGKERELVAAIRSGGSTNYADSVKGRFTISRDNAKNTVYLQMNSLKPEDTAVYYCAARKWHSAYDYWGQGTQVTVSS	high polyreactivity

Sequence	polyreactivity (PSR sort gate)
QGQRVESGGGLVQAGGSLRISCAASGRTVGRYVMGWYRQEPGKERELVARIRGSTTSTYYADSVKGRFTISRDNAKNTVYLQMNSLKAEDTAVYYCAASYSPFASSYSYDYWGQGTQVTVSS	high polyreactivity
QVQLVESRGGLVQVGGSLRLSCAASGRTFGRYAMGWYRQAPGNERELVAAINSVARTNYADSVKGRFTISRDNAKNTVYLQMNSLKPEDSAVYYCAARRRGSVGVGYAYPYNYWGQGTQVTVSS	high polyreactivity
QVQLVESGGGLVQAGGSLRLSFAASGRTFEPYPLGWYRQAPGKERELVAAIDVGDGTTYYAYSVKGRFTISRDNAKYTVYLELNSLKPEDTAVYYCAADVIGFVGSEDYWGQGTQVTVSS	low polyreactivity
QVQLVESGGGLVQAGGSLRLSCAASGRTFKHYAMGGYRQAPGKERELVAAITSGGSTYYADSVKGRFTISRDNAKNTVYLQMNSLKPEDTAVYYCNKESYFDTYRRYDSWGQGTQVTVSS	low polyreactivity
HVQLVESGGGLVQAGGSLRLSCAASGLNFLYYGMGWYRQAPGKERELVAAISSGGGTYYADSVKGRFTISRDNAKNTVYLQMNSLKPEDTAVYYCAVDPQWTYWSTYRYDYWGQGTQVTVSS	low polyreactivity
QVQLVESGGGLVQAGGSLRLSCAASGGTFLYYAMGWYRQAPGKERELVAAISRGGSTHYADSVKGRFTISRDNAKNTVYLQMNSLKPEDTAVYYCAADRSHRKRINFYDYWGQGTQVTVSS	low polyreactivity
QVQLVESGGCLVQARGSLRLSCASSGSTFGRNAMGWYRQAPGKERELVASISRRGGSTYYADSVKGRFTISRDNAKNTVYLQMNSLKPEDTAVYYCNRVQFSPVYRFREYDYWGQGTQVTVSS	high polyreactivity
QVQLVESGGGLVQAGGSLRLSCAASGRIFAFYAMGWYRQAPGKERELVAAISWDGGSSYYADSVKGRFTISRDNAKNTVYLQMNSLKPEDTAVYDCNKDLYYAYDYWGQGTQVTVSS	low polyreactivity
QVQLVESGGGLVQAGGSLRLSCAASGRILPRNSMGWSRQAPGKERELVAGISSDGSTKYADSVKGRFTISRDNAKNTVYLQMNSLKPEETAVYYCAADVVYDPNLYGYWGQGTQVTVSS	low polyreactivity
QVQRVESGGGLFQAGRSLRLSCAASGSTIRRYAMGWYRQAPGKERELVAAMSRGGNTNYADSVKGRFTISRDNATNTVYLQMNCLKPEDTAVYYCAAKLYGGWYRDFAACGMDYWGQGTQVTVCS	high polyreactivity
QVQLVESGGGLVQAGGSLRLSCAASGSTFRGYAMGWYRQAPGKEREFVAAITYTGSSTTYADSVKGRFTISRDNAKNTVYLQMNSLKPEDTAVYYCNKYTRFASSNMYYWGQGTQVTVSS	high polyreactivity
QVQLVESGGGLVQAGGSLRLSCAASGRTFRYYAMGWYRQAPGKERELVADISWSGGRTTYADSVKGRFTISRDNAKNTVYLQMNSLKPEDTAVYYCAKVLYYPSHVSWGQGTQVTVSS	high polyreactivity
QVQLVESGGGLVQAGGSLRLSCAASGSTFWYYALGWYRQAPGKERELVAAIRWSDGSTYYADSVKGRFTSSRDNAKNTVYLQMNSLKPEDTAVYYCEYYYWGQGTQVTVSS	low polyreactivity
QVQLVESGGGLVQAGGSLRLSCAASGSTVRRYAMGWYRQAPGKERELVATISSGGRTNYADSVKGRFTISRDNAKNTVYLEMNSLKPEDTGVYYCAARPYFYERSAGYYWGQGTQVTVSS	high polyreactivity
QVQLQESGGGLVQAGGSLRLSCAASGTISPLPAMGWYRQAPGKEPEFVAGIDTGAITNYADSVKGRFTISRDNAKNTVYLQMNSLKPEDTAVYYCAVFPAAYDYYERYYTYWGQGTQVTVIS	low polyreactivity
QVQLVESGGGLVQAGGSLRLSCAASGSTLYGYAMGWSRQAPGKERELVAAISDSGGNTYYADSVKGRFTISRDNAKNTGYLQMNSLKPEDTAVYYCAAEDIVFPYDYWGQGTQVTVSS	low polyreactivity
QGQLVESGGGLVQAGGSLRLSCAASGRIFKYNAMGWYRQAPGKEMELVAVITSGGSTYYADSVKGRFTISRDNAKNTVYLQMNSLKPEDTAVYYCAKKYYIVHKFDYWGQGTQVTVSS	low polyreactivity
QVQLVESGGGLVQAGGSLRLSCAASGSIFYRYAMGWYRQAPGKERELVAAISSNGVSTYYADSVKGRFTISRDNAKNTVYLQMNSLKPEDTAVYYCARDVYASPRLYTSRYNYWGQGTQVTVSS	low polyreactivity
QVQLVESGGGLVQAGGSLRLSFAASGRTFYQYGQGWYRQAPGKERELVAAISDSGGGTYYADSVKGRFTFSRDNAKNTVYLQMNSLIPEDTAVYYCAATYVGPRRRYYYWGQGTQVTVSS	high polyreactivity
QVQLVESGGGLVQAGGSLRLSCAASGITFPLYVMGWSRQAPGKERELVAAISASGGSTYADSVKGRFTISRDNAKNTVYLQMNSLKPEDTAVYYCNADVYVGYEYDYWGQGTQVTVSS	low polyreactivity
QVQLEESGGGLVQAGGSLRLSCAASGRIFAYYAMGWYRQAPGKERELVAAIRGSGGSTYYADSVKGRFTISRDNAKNTVYLQMNSLKPEDTAVYYCAARTQPKKFYYWGQGTQVTVSS	high polyreactivity
